Experimental data published in patent publication US20240392004A1 (IMMUNOWAKE, published 2024).

What was measured:
human PD-1 [1] = molecular target: T1, human PD-1 (human, UniProt Q15116 25-167, limits assumed); assay: same value as Table 11 (measured on the antibody without IL-12)
T1 construct: also called hPD-1

[2] = molecular target: human IL-12 receptor complex (IL-12Rβ1 and IL-12Rβ2) (human, UniProt P42701 24-662; Q99665 24-862); assay: cell-based or functional assay
[3] = molecular target: human PD-1 on cells (HEK-PD-1 reporter cells; activated PBMC) (human, UniProt Q15116 25-288); assay: cell-based or functional assay
Chain of human PD-1 on cells (HEK-PD-1 reporter cells; activated PBMC) (Q15116 25-288): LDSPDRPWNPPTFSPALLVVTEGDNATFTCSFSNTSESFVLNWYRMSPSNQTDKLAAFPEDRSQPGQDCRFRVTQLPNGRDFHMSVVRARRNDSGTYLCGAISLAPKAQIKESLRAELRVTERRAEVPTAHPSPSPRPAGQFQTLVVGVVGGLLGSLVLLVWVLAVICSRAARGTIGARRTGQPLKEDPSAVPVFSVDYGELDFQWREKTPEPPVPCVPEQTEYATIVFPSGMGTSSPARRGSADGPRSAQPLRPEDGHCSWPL

human PD-1 [4] = molecular target: T1, human PD-1; assay: Biacore and cell-based assays, calibrated by wildtype nivolumab binding affinity

Chain of human IL-12 receptor complex (IL-12Rβ1 and IL-12Rβ2) (Q99665 24-862, chain 2 of 2, other chains not shown): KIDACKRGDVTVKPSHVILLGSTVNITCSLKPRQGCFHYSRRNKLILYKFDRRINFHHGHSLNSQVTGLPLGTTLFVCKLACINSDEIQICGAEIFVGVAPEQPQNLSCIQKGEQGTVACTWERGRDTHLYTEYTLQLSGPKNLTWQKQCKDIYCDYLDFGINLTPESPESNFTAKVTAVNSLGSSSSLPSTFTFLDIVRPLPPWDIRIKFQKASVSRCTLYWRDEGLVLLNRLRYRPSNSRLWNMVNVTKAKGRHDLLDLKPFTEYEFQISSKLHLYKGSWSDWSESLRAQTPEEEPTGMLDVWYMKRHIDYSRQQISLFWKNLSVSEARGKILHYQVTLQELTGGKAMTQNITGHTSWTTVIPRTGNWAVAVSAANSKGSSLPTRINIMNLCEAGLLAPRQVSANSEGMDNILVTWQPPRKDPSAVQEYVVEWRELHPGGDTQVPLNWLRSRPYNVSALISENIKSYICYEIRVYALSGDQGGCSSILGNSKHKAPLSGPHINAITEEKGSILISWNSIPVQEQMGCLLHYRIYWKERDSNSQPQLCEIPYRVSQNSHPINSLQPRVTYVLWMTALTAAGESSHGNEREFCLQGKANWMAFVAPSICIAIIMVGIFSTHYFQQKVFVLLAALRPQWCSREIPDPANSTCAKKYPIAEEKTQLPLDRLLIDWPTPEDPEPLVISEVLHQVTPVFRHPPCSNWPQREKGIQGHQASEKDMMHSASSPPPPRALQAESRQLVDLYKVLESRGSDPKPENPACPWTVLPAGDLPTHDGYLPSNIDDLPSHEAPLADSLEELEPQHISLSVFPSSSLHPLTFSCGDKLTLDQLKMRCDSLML
T1 sequence (Q15116 25-167 limits assumed): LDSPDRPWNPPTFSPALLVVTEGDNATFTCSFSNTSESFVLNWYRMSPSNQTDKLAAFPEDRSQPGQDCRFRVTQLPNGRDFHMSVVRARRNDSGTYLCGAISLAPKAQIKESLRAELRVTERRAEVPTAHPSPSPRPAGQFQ

Kd (human PD-1 [1]) [nM]	IL-12 signal transduction, HEK IL-12 [2] [%]	IFN-γ release, activated PBMC [3] [ng/mL]	IL-12 signal transduction, HEK-IL-12-PD-1 (high) [3] [%]	IL-12 signal transduction, HEK-IL-12-PD-1 (low) [3] [%]	Kd (human PD-1 [4]) [nM]	Binder
25	< 0.2	820	38	33	–	IL-12(E59A/F60A)/anti-PD-1(D100N) (antibody) light: not shown heavy: QVQLVESGGGVVQPGRSLRLDCKASGITFSNSGMHWVRQAPGKGLEWVAVIWYDGSKRYYADSVKGRFTISRDNSKNTLFLQMNSLRAEDTAVYYCATNNDYWGQGTLVTVSSASTKGPSVFPLAPSSKSTSGGTAALGCLVKDYFPEPVTVSWNSGALTSGVHTFPAVLQSSGLYSLSSVVTVPSSSLGTQTYICNVNHKPSNTKVDKKVEPKSCDKPGSGIWELKKDVYVVELDWYPDAPGEMVVLTCDTPEEDGITWTLDQSSEVLGSGKTLTIQVKAAGDAGQYTCHKGGEVLSHSLLLLHKKEDGIWSTDILKDQKEPKNKTFLRCEAKNYSGRFTCWWLTTISTDLTFSVKSSRGSSDPQGVTCGAATLSAERVRGDNKEYEYSVECQEDSACPAAEESLPIEVMVDAVHKLKYENYTSSFFIRDIIKPDPPKNLQLKPLKNSRQVEVSWEYPDTWSTPHSYFSLTFCVQVQGKSKREKKDRVFTDKTSATVICRKNASISVRAQDRYYSSSWSEWASVPCSGGGGSGGGGSGGGGSGGGGSGRNLPVATPDPGMFPCLHHSQNLLRAVSNMLQKARQTLEFYPCTSEEIDHEDITKDKTSTVEACLPLELTKNESCLNSRETSFITNGSCLASRKTSFMMALCLSSIYEDLKMYQVEFKTMNAKLLMDPKRQIFLDQNMLAVIDELMQALNFNSETVPQKSSLEEPDFYKTKIKLCILLHAFRIRAVTIDRVMSYLNASDKTHTCPPCPAPEDEGGPSVFLFPPKPKDTLMISRTPEVTCVVVDVSHEDPEVKFNWYVDGVEVHNAKTKPREEQYNSTYRVVSVLTVLHQDWLNGKEYKCKVSNKALPAPIEKTISKAKGQPREPQVYVYPPSREEMTKNQVSLTCLVKGFYPSDIAVEWESNGQPENNYKTTPPVLDEDGSFALVSKLTVDKSRWQQGNVFSCSVMHEALHNHYTQKSLSLSPGK heavy (part 1 of 2): QVQLVESGGGVVQPGRSLRLDCKASGITFSNSGMHWVRQAPGKGLEWVAVIWYDGSKRYYADSVKGRFTISRDNSKNTLFLQMNSLRAEDTAVYYCATNNDYWGQGTLVTVSSAS heavy (part 2 of 2): EPKSCDKTHTCPPCPAPEKKGGPSVFLFPPKPKDTLMISRTPEVTCVVVDVSHEDPEVKFNWYVDGVEVHNAKTKPREEQYNSTYRVVSVLTVLHQDWLNGKEYKCKVSNKALPAPIEKTISKAKGQPREPQVYVLPPSREEMTKNQVSLLCLVKGFYPSDIAVEWESNGQPENRYMTWPPVLDSDGSFFLYSKLTVDKSRWQQGNVFSCSVMHEALHNHYTQKSLSLSPGK
2300	< 0.2	34	5	< 0.2	–	IL-12(E59A/F60A)/anti-PD-1(N99G) (antibody) light: not shown heavy: not shown heavy (part 1 of 2): QVQLVESGGGVVQPGRSLRLDCKASGITFSNSGMHWVRQAPGKGLEWVAVIWYDGSKRYYADSVKGRFTISRDNSKNTLFLQMNSLRAEDTAVYYCATGDDYWGQGTLVTVSSAS heavy (part 2 of 2): EPKSCDKTHTCPPCPAPEKKGGPSVFLFPPKPKDTLMISRTPEVTCVVVDVSHEDPEVKFNWYVDGVEVHNAKTKPREEQYNSTYRVVSVLTVLHQDWLNGKEYKCKVSNKALPAPIEKTISKAKGQPREPQVYVLPPSREEMTKNQVSLLCLVKGFYPSDIAVEWESNGQPENRYMTWPPVLDSDGSFFLYSKLTVDKSRWQQGNVFSCSVMHEALHNHYTQKSLSLSPGK
910	< 0.2	69	10	3	–	IL-12(E59A/F60A)/anti-PD-1(D100R) (antibody) light: not shown heavy: QVQLVESGGGVVQPGRSLRLDCKASGITFSNSGMHWVRQAPGKGLEWVAVIWYDGSKRYYADSVKGRFTISRDNSKNTLFLQMNSLRAEDTAVYYCATNRDYWGQGTLVTVSSASTKGPSVFPLAPSSKSTSGGTAALGCLVKDYFPEPVTVSWNSGALTSGVHTFPAVLQSSGLYSLSSVVTVPSSSLGTQTYICNVNHKPSNTKVDKKVEPKSCDKPGSGIWELKKDVYVVELDWYPDAPGEMVVLTCDTPEEDGITWTLDQSSEVLGSGKTLTIQVKAAGDAGQYTCHKGGEVLSHSLLLLHKKEDGIWSTDILKDQKEPKNKTFLRCEAKNYSGRFTCWWLTTISTDLTFSVKSSRGSSDPQGVTCGAATLSAERVRGDNKEYEYSVECQEDSACPAAEESLPIEVMVDAVHKLKYENYTSSFFIRDIIKPDPPKNLQLKPLKNSRQVEVSWEYPDTWSTPHSYFSLTFCVQVQGKSKREKKDRVFTDKTSATVICRKNASISVRAQDRYYSSSWSEWASVPCSGGGGSGGGGSGGGGSGGGGSGRNLPVATPDPGMFPCLHHSQNLLRAVSNMLQKARQTLEFYPCTSEEIDHEDITKDKTSTVEACLPLELTKNESCLNSRETSFITNGSCLASRKTSFMMALCLSSIYEDLKMYQVEFKTMNAKLLMDPKRQIFLDQNMLAVIDELMQALNFNSETVPQKSSLEEPDFYKTKIKLCILLHAFRIRAVTIDRVMSYLNASDKTHTCPPCPAPEDEGGPSVFLFPPKPKDTLMISRTPEVTCVVVDVSHEDPEVKFNWYVDGVEVHNAKTKPREEQYNSTYRVVSVLTVLHQDWLNGKEYKCKVSNKALPAPIEKTISKAKGQPREPQVYVYPPSREEMTKNQVSLTCLVKGFYPSDIAVEWESNGQPENNYKTTPPVLDEDGSFALVSKLTVDKSRWQQGNVFSCSVMHEALHNHYTQKSLSLSPGK heavy (part 1 of 2): QVQLVESGGGVVQPGRSLRLDCKASGITFSNSGMHWVRQAPGKGLEWVAVIWYDGSKRYYADSVKGRFTISRDNSKNTLFLQMNSLRAEDTAVYYCATNRDYWGQGTLVTVSSAS heavy (part 2 of 2): EPKSCDKTHTCPPCPAPEKKGGPSVFLFPPKPKDTLMISRTPEVTCVVVDVSHEDPEVKFNWYVDGVEVHNAKTKPREEQYNSTYRVVSVLTVLHQDWLNGKEYKCKVSNKALPAPIEKTISKAKGQPREPQVYVLPPSREEMTKNQVSLLCLVKGFYPSDIAVEWESNGQPENRYMTWPPVLDSDGSFFLYSKLTVDKSRWQQGNVFSCSVMHEALHNHYTQKSLSLSPGK
130	< 0.2	120	33	17	–	IL-12(E59A/F60A)/anti-PD-1(D100G) (antibody) light: not shown heavy: QVQLVESGGGVVQPGRSLRLDCKASGITFSNSGMHWVRQAPGKGLEWVAVIWYDGSKRYYADSVKGRFTISRDNSKNTLFLQMNSLRAEDTAVYYCATNGDYWGQGTLVTVSSASTKGPSVFPLAPSSKSTSGGTAALGCLVKDYFPEPVTVSWNSGALTSGVHTFPAVLQSSGLYSLSSVVTVPSSSLGTQTYICNVNHKPSNTKVDKKVEPKSCDKPGSGIWELKKDVYVVELDWYPDAPGEMVVLTCDTPEEDGITWTLDQSSEVLGSGKTLTIQVKAAGDAGQYTCHKGGEVLSHSLLLLHKKEDGIWSTDILKDQKEPKNKTFLRCEAKNYSGRFTCWWLTTISTDLTFSVKSSRGSSDPQGVTCGAATLSAERVRGDNKEYEYSVECQEDSACPAAEESLPIEVMVDAVHKLKYENYTSSFFIRDIIKPDPPKNLQLKPLKNSRQVEVSWEYPDTWSTPHSYFSLTFCVQVQGKSKREKKDRVFTDKTSATVICRKNASISVRAQDRYYSSSWSEWASVPCSGGGGSGGGGSGGGGSGGGGSGRNLPVATPDPGMFPCLHHSQNLLRAVSNMLQKARQTLEFYPCTSEEIDHEDITKDKTSTVEACLPLELTKNESCLNSRETSFITNGSCLASRKTSFMMALCLSSIYEDLKMYQVEFKTMNAKLLMDPKRQIFLDQNMLAVIDELMQALNFNSETVPQKSSLEEPDFYKTKIKLCILLHAFRIRAVTIDRVMSYLNASDKTHTCPPCPAPEDEGGPSVFLFPPKPKDTLMISRTPEVTCVVVDVSHEDPEVKFNWYVDGVEVHNAKTKPREEQYNSTYRVVSVLTVLHQDWLNGKEYKCKVSNKALPAPIEKTISKAKGQPREPQVYVYPPSREEMTKNQVSLTCLVKGFYPSDIAVEWESNGQPENNYKTTPPVLDEDGSFALVSKLTVDKSRWQQGNVFSCSVMHEALHNHYTQKSLSLSPGK heavy (part 1 of 2): QVQLVESGGGVVQPGRSLRLDCKASGITFSNSGMHWVRQAPGKGLEWVAVIWYDGSKRYYADSVKGRFTISRDNSKNTLFLQMNSLRAEDTAVYYCATNGDYWGQGTLVTVSSAS heavy (part 2 of 2): EPKSCDKTHTCPPCPAPEKKGGPSVFLFPPKPKDTLMISRTPEVTCVVVDVSHEDPEVKFNWYVDGVEVHNAKTKPREEQYNSTYRVVSVLTVLHQDWLNGKEYKCKVSNKALPAPIEKTISKAKGQPREPQVYVLPPSREEMTKNQVSLLCLVKGFYPSDIAVEWESNGQPENRYMTWPPVLDSDGSFFLYSKLTVDKSRWQQGNVFSCSVMHEALHNHYTQKSLSLSPGK
–	–	–	–	–	910	anti-PD-1 antibody HC-CDR3(D100R) (antibody, V domains shown, constant parts as m82) VH: QVQLVESGGGVVQPGRSLRLDCKASGITFSNSGMHWVRQAPGKGLEWVAVIWYDGSKRYYADSVKGRFTISRDNSKNTLFLQMNSLRAEDTAVYYCATNRDYWGQGTLVTVSS VL: EIVLTQSPATLSLSPGERATLSCRASQSVSSYLAWYQQKPGQAPRLLIYDASNRATGIPARFSGSGSGTDFTLTISSLEPEDFAVYYCQQSSNWPRTFGQGTKVEIKR
–	–	–	–	–	2300	anti-PD-1 antibody HC-CDR3(N99G) (antibody, V domains shown, constant parts as m82) VH: QVQLVESGGGVVQPGRSLRLDCKASGITFSNSGMHWVRQAPGKGLEWVAVIWYDGSKRYYADSVKGRFTISRDNSKNTLFLQMNSLRAEDTAVYYCATGDDYWGQGTLVTVSS VL: EIVLTQSPATLSLSPGERATLSCRASQSVSSYLAWYQQKPGQAPRLLIYDASNRATGIPARFSGSGSGTDFTLTISSLEPEDFAVYYCQQSSNWPRTFGQGTKVEIKR
